Results reported in article PMC13398683.

Target: Endothelin Receptor Type B (human (endogenous in LGG275 and other patient-derived glioma lines)) (UniProt P24530)
Sequence of UniProt P24530 (P24530 27-442): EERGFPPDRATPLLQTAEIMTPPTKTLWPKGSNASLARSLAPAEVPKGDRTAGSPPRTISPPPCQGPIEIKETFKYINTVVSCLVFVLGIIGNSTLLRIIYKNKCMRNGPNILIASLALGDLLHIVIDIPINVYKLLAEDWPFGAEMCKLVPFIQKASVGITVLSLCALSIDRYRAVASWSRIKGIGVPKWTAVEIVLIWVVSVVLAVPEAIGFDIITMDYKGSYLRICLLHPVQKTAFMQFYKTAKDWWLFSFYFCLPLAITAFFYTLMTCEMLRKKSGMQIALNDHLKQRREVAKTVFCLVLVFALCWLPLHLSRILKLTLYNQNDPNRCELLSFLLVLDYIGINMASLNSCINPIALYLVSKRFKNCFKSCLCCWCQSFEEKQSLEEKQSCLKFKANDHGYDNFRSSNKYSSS

CTCFTYKDKECVYYCHLDIIW (ligand) [Endothelin 3]
growth of LGG275 cells, dose-response with ET-3 (4 pM-40 nM): lowest concentration with growth inhibition: 0.4 nM
